Test results as given in patent US7060677B1, “Antimicrobial activity of the first cationic cluster of human lactoferrin” (priority 1999, dated 2006).
“Also recorded” adds a separate entry of the source. Marks after values point to notes of the source that are not given here.

Tests used:
[1] = system: E. coli; experiment: Assay for membrane permeability (propidium iodide, FACS); type: cell-based, Escherichia coli; conditions: period of analysis 4 h after addition of the protein
Description: (§1) Changes in the membrane permeability of bacteria upon exposure to hLF, hLF^−3N and related peptides were monitored after incubation with propidium iodide (PI; Sigma), using FACS analysis (12, 20). Stock solutions of PI (1 mg/ml of deionized water) were prepared. Approximately 2×10^6 bacteria/ml of PBS-Tw were incubated for various intervals at 37° C., washed, incubated for 5 min with 1 μg of PI/ml (final concentration) and then analyzed with a FACScan (Becton & Dickinson, CA) equipped with a argon-laser at 488 nm. The photomultiplier voltages were routinely set at 500 V for PI fluorescence intensity in the second channel. Data acquisition and analysis were controlled using the Lysis II software.

[2] = system: antibiotic resistant S. aureus; experiment: Experimental thigh muscle infection; type: in vivo, mice; conditions: FIG. 5
Description: In short, specific pathogen-free, male. Swiss mice weighing 20–25 g (Broekman Institute, Someren, The Netherlands) were anaesthetized with a single intraperitoneal injection of 0.1 ml of saline containing 1 mg fluanisone and 0.03 mg fentanyl citrate (Hypnorm, Janssen Pharmaceutics, Tilburg, The Netherlands). Preceding scintigraphy, a subcutaneous injection of 0.1 ml, containing 0.2 mg diazepam (Valium, Hoffmann-La Roche, Mijdrecht, The Netherlands) was administered. […] As a control, mice were injected with 0.2 ml of saline containing BSA or saline without any peptide. […] Next, the infected thigh muscles were removed and, after weighing, homogenized in 4 ml of PBS. Appropriate dilutions of the homogenates were applied onto diagnostic sensitivity test plates (Oxoid), and the number of colonies counted after an overnight culture at 37° C. Results are expressed as the number of CFUs per gram of infected tissue.

[3] = system: L. monocytogenes; experiment: Assay for membrane permeability (propidium iodide, FACS); type: cell-based, Listeria monocytogenes; conditions: period of analysis 4 h after addition of the protein
Description: as §1

[4] = system: antibiotic resistant S. aureus; experiment: Assay for antibacterial activity (in vitro killing, viable count); type: cell-based, Staphylococcus aureus strain 2141; conditions: for CFU of bacteria, antibiotic resistant S. aureus: 4 μM protein, approx. 1 × 10^6 CFU, PBS-Tw (pH 6.0), 3 h at 37° C., mean ± SD of 3–5 experiments
Description: (§2) Listeria monocytogenes strain EGD. Klebsiella pneumoniae (43816), and Escherichia coli O54 were purchased from the American Type Culture Collection (Rockville, Md.). Antibiotic resistant S. aureus, K. pneumoniae and E. coli were cultured overnight in nutrient broth (Oxoid, Basingstoke, UK) at 37° C., diluted in tryptase soya broth (TSB, Oxoid) and cultured for an additional 2 h in a shaking waterbath at 37° C. L. monocytogenes was cultured overnight in brain heart infusion broth (BHI, Oxoid) at 37° C. diluted and cultured for an additional 2 h in a shaking waterbath at 37° C.
(§3) In short, bacteria were washed with phosphate-buffered saline (PBS) (pH 7.4) and diluted to a concentration of approximately 2×10^6 CFU/ml of phosphate-buffered saline (pH 6.0) supplemented with 0.1% (v/v) Tween-20 (hereafter designated as PBS-Tw). […] At various time intervals (range 0–4 h) after incubation at 37° C. the number of viable bacteria was determined microbiologically. As negative controls, bovine serum albumin (BSA; Sigma) or no peptide were included.

[5] = system: E. coli; experiment: Assay for non-specific esterase activity (SFDA, FACS); type: cell-based, Escherichia coli; conditions: within 1–2 hours after addition
Description: (§4) As an indication of intracellular effects of hLF, hLF^−3N and related peptides (e.g., hLF (1–11) and hLF(21–31) in bacteria, the non-specific esterase activity of bacteria upon exposure to these antimicrobial proteins/peptides was assessed using 5-sulfofluorescein diacetate (SFDA; Molecular Probes, Leiden, The Netherlands) and FACS analysis (21). For these experiments, a stock solution of SFDA (1 mg/ml of ethanol) was prepared. Approximately 2×10^6 CFU of bacteria/ml of PBS-Tw were incubated with various concentrations of hLF, hLF^−3N and hLF related peptides for various intervals at 37° C., washed, incubated with 100 μM of SFDA/ml (final concentration ethanol 20% v/v) for 20 min at room temperature in the dark and then analyzed with a FACScan using the photomultiplier voltage of the first channel set at 700 V.

[6] = system: L. monocytogenes; experiment: Assay for antibacterial activity (in vitro killing, viable count); type: cell-based, Listeria monocytogenes strain EGD; conditions: for CFU of bacteria, L. monocytogenes: 4 μM protein, approx. 1 × 10^6 CFU, PBS-Tw (pH 6.0), 3 h at 37° C., mean ± SD of 3–5 experiments
Description: as §2, §3

[7] = system: K. pneumoniae; experiment: as above; type: cell-based, Klebsiella pneumoniae (43816)
Description: as §2, §3

[8] = system: bacteria; experiment: Assay for membrane permeability (propidium iodide, FACS), bacteria in general; type: cell-based
Description: as §1

[9] = system: L. monocytogenes; experiment: Assay for non-specific esterase activity (SFDA, FACS); type: cell-based, Listeria monocytogenes; conditions: within 1–2 hours after addition; FIG. 4: 4 μM
Description: as §4

[10] = system: the various bacteria (L. monocytogenes, antibiotic resistant S. aureus, K. pneumoniae, E. coli); experiment: Assay for antibacterial activity, statements on the various bacteria together; type: cell-based
Description: as §2, §3

[11] = system: E. coli; experiment: Assay for antibacterial activity (in vitro killing, viable count); type: cell-based, Escherichia coli O54; conditions: for CFU of bacteria, E. coli: 4 μM protein, approx. 1 × 10^6 CFU, PBS-Tw (pH 6.0), 3 h at 37° C., mean ± SD of 3–5 experiments
Description: as §2, §3

[12] = Pharmacology of 99mTc-labeled hLF and peptides by scintigraphy in infected mice; conditions: mouse, in vivo
Description: Lactoferrins and related peptides were labeled with ^99mTechnetium (^99mTc) as described (22, 23). Briefly, 10 μl of a peptide solution (1 mg/ml of HAc) was added to 2 μl of an aseptic solution of 0.5 mg of stannous pyrophosphate/ml (Dept. of Clinical Pharmacy and Toxicology. Leiden University Medical Center (LUMC). Leiden. The Netherlands). Immediately thereafter, 4 μl of a solution of 10 mg of KBH4 (crystalline. Sigma) per ml of 0.1 M NaOH was added. After addition of 0.1 ml of ^99mTc-sodium pertechnetate solution (200 MBq/ml. Mallinckrodt Medical BV, Petten, The Netherlands), the mixture was gently stirred at ambient temperature for 30 min and then was ready for use. Quality control of the labeling was performed by RP-HPLC analysis using a Sep-Pak C18 cartridge (Waters, Milford, Mass.) in 20 ml of 0.01 M HAc. After rinsing with 20 ml of 0.01 M HAc, proteins and peptides were eluted with 2 ml of methanol (Sigma). […]
On the scintigrams, anatomically adjusted regions of interest (ROI) were drawn over the various organs and both thighs providing data about clearance of ^99mTc-peptides and accumulation at the site of infection. […] The amount of radioactivity in the heart was corrected for decay and expressed as a percentage of injected dose (% ID).

[13] = system: bacteria; experiment: Assay for non-specific esterase activity (SFDA, FACS), bacteria in general; type: cell-based

B1: hLF: Natural human lactoferrin (Mr 77,000) purified from the fresh milk of a single donor, N-terminus intact; SEQ ID NO:1 (protein, listed as Homo sapiens)
chain: GRRRRSVQWCAVSQPEATKCFQWQRNMRKVRGPPVSCIKRDSPIQCIQAIAENRADAVTLDGGFIYEAGLAPYKLRPVAAEVYGTERQPRTHYYAVAVVKKGGSFQLNELQGLKSCHTGLRRTAGWNVPIGTLRPFLNWTGPPEPIEAAVARFFSASCVPGADKGQFPNLCRLCAGTGENKCAFSSQEPYFSYSGAFKCLRDGAGDVAFIRESTVFEDLSDEAERDEYELLCPDNTRKPVDKFKDCHLARVPSHAVVARSVNGKEDAIWNLLRQAQEKFGKDKSPKFQLFGSPSGQKDLLFKDSAIGFSRVPPRIDSGLYLGSGYFTAIQNLRKSEEEVAARRARVVWCAVGEQELRKCNQWSGLSEGSVTCSSASTTEDCIALVLKGEADAMSLDGGYVYTAGKCGLVPVLAENYKSQQSSDPDPNCVDRPVEGYLAVAVVRRSDTSLTWNSVKGKKSCHTAVDRTAGWNIPMGLLFNQTGSCKFDEYFSQSCAPGSDPRSNLCALCIGDEQGENKCVPNSNERYYGYTGAFRCLAENAGDVAFVKDVTVLQNTDGNNNEAWAKDLKLADFALLCLDGKRKPVTEARSCHLAMAPNHAVVSRMDKVERLKQVLLHQQAKFGRNGSDCPDKFCLFQSETKNLLFNDNTECLARLHGKTTYEKYLGPQYVAGITNLKKCSTSPLLEACEFLRK
**Q.** With B1 as the molecule, how does the “Change of the membrane permeability of E. coli” value [1] read?
**A.** The value was “not followed by a significant change”.

**Q.** What about the “Amount at which maximum effects on viable bacteria were seen” value ([2]; mice infected with antibiotic resistant S. aureus, 24 h after injection) of the same molecule?
**A.** Its value is 1 nmol.

**Q.** What about the “Number of viable bacteria in mice infected with antibiotic resistant S. aureus” value ([2]; within 24 h after intravenous injection, thigh muscle) of the same molecule?
**A.** Its value is “reduced in a dose-dependent fashion”.

**Q.** And the “Change of the membrane permeability of L. monocytogenes” value [3]?
**A.** Its value is “not followed by a significant change”.

**Q.** And the “CFU of bacteria, antibiotic resistant S. aureus” value [4]?
**A.** Its value is 6.9 ± 2.1 × 10^4*^,** CFU.

**Q.** What about the “CFU of bacteria, antibiotic resistant S. aureus” value ([4]; listed as hLF^3N) of the same molecule?
**A.** The value was 5.6 ± 1.9 × 10^5 CFU.

**Q.** And the “Killing of antibiotic resistant S. aureus by the protein (in words)” value ([4]; dose-dependent, FIGS. 1A–1E)?
**A.** The value was “killed”.

**Q.** What about the “Intracellular non-specific esterase activity of E. coli” value [5] of the same molecule?
**A.** Its value is “not”.

**Q.** What about the “CFU of bacteria, L. monocytogenes” value [6] of the same molecule?
**A.** Its value is 2.4 ± 0.9 × 10^4*^,** CFU.

**Q.** What about the “CFU of bacteria, L. monocytogenes” value ([6]; listed as hLF^3N) of the same molecule?
**A.** The value was 4.8 ± 2.4 × 10^5 CFU.

**Q.** What about the “Killing of L. monocytogenes by the protein (in words)” value ([6]; dose-dependent, FIGS. 1A–1E) of the same molecule?
**A.** The value was “killed”.

**Q.** And the “CFU of bacteria, K. pneumoniae” value ([7]; 4 μM protein, approx. 1 × 10^6 CFU, PBS-Tw (pH 6.0), 3 h at 37° C., mean ± SD of 3–5 experiments, listed as hLF^3N)?
**A.** Its value is 6.8 ± 1.5 × 10^5 CFU.

**Q.** What about the “Killing of K. pneumoniae by the protein (in words)” value ([7]; dose-dependent, FIGS. 1A–1E) of the same molecule?
**A.** Its value is “killed”.

**Q.** What about the “Membrane permeability of the bacteria, proteins (conclusions)” value [8] of the same molecule?
**A.** The value was “without affecting”.

**Q.** What about the “Intracellular non-specific esterase activity of L. monocytogenes” value [9] of the same molecule?
**A.** The value was “inhibited”.

**Q.** What about the “Speed of killing these bacteria, natural hLF compared with hLF^−3N” value ([10]; 4 μM, FIGS. 1C–1E, p<0.05) of the same molecule?
**A.** The value was “faster (p<0.05) than hLF^−3N”.

**Q.** What about the “Effect on the number of viable bacteria at 4° C.” value ([10]; 4° C.) of the same molecule?
**A.** Its value is “no affect; also recorded: not able to kill bacteria”.

**Q.** What about the “Potency in killing, natural hLF compared with hLF^−3N” value ([10]; dose-dependent killing, FIGS. 1A–1B, p<0.05) of the same molecule?
**A.** Its value is “more potent (p<0.05) than hLF^−3N”.

**Q.** And the “CFU of bacteria, E. coli” value [11]?
**A.** Its value is 3.0 ± 0.3 × 10^6 CFU.

**Q.** And the “CFU of bacteria, E. coli” value ([11]; listed as hLF^3N)?
**A.** The value was 9.5 ± 8.2 × 10^5 CFU.

**Q.** What about the “Killing of E. coli by the protein (in words)” value ([11]; Table 1, even at concentrations up to 12 μM) of the same molecule?
**A.** The value was “not killed”.

**Q.** And the “Amount at the site of infection, hLF compared with hLF^−3N” value [12]?
**A.** The value was “did not differ”.

**Q.** What about the “mean t1/2 of removal from the circulation” value [12] of the same molecule?
**A.** The value was “approximately 19 min”.

**Q.** And the “Non-specific esterase activity of the bacteria (conclusions)” value [13]?
**A.** Its value is “inhibited”.

**Q.** What about the “Effect on the non-specific esterase activity at 4° C.” value ([13]; 4° C.) of the same molecule?
**A.** Its value is “no affect; also recorded: not able”.
